# Data: patent publication US20040234530A1 (WISCONSIN ALUMNI RESEARCH FOUNDATION, published 2004)
# T1: StcE′ E435D-His (as StcE′-His with glutamic to aspartic acid at residue 435; from pTB5, strain WAM2804) (E. coli O157:H7 EDL933 (plasmid pO157), UniProt O82882 36-898)
# T1 sequence: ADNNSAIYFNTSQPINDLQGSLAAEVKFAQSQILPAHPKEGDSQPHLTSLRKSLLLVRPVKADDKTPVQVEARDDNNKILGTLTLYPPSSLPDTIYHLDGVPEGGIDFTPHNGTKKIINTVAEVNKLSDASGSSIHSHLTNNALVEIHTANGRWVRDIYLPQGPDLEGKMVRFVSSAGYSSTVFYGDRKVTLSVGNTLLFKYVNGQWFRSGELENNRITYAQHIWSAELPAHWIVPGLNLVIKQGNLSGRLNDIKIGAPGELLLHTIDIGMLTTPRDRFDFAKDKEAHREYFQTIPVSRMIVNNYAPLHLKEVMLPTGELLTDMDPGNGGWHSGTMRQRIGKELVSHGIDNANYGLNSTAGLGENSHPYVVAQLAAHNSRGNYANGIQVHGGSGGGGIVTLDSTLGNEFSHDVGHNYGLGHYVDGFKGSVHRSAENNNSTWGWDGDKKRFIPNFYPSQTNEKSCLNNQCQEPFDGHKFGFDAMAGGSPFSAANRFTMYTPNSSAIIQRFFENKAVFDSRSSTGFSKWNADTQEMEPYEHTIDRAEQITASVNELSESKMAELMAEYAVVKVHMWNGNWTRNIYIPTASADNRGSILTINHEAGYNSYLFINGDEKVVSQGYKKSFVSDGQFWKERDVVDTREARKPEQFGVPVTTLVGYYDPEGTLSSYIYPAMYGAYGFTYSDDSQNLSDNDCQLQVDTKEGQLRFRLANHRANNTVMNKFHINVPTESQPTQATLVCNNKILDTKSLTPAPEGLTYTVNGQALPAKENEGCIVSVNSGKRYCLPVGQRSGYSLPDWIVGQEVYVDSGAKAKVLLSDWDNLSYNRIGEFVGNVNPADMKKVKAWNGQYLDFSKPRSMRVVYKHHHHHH
# Target: T1, StcE′ E435D-His (as StcE′-His with …)
binder,measurement,value
"C1-esterase inhibitor (human plasma protease C1 inhibitor), purified or in human serum (other, UniProt P05155 23-500, looked up, heavily glycosylated N-terminal domain) NPNATSSSSQDPESLQDRGEGKVATTVISKMLFVEPILEVSSLPTTNSTTNSATKITANTTDEPTTQPTTEPTTQPTIQPTQPTTQLPTDSPTQPTTGSFCPGPVTLCSDLESHSTEAVLGDALVDFSLKLYHAFSAMKKVETNMAFSPFSIASLLTQVLLGAGENTKTNLESILSYPKDFTCVHQALKGFTTKGVTSVSQIFHSPDLAIRDTFVNASRTLYSSSPRVLSNNSDANLELINTWVAKNTNNKISRLLDSLPSDTRLVLLNAIYLSAKWKTTFDPKKTRMEPFHFKNSVIKVPMMNSKKYPVAHFIDQTLKAKVGQLQLSHNLSLVILVPQNLKHRLEDMEQALSPSVFKAIMEKLEMSKFQPTLLTLPRIKVTTSQDMLSIMEKLEFFDFSYDLNLCGLTEDPDLQVSAMQHQTVLELTETGVEAAAASAISVARTLLVFEVQQPFLFVLWDQQHKFPVFMGRVYDPRA",fold level of C1-INH on erythrocyte surfaces against that in the presence of StcE′-His,22 fold
